Key:
Experiment in all cases: SPR
[1] = molecular target: Glycosylated human basigin (BSG-2, mammalian cell-expressed) (human)
[2] = molecular target: Nonglycosylated human basigin ectodomain (BSG-2, E. coli-expressed) (human)
[3] = molecular target: Human IgG1 CR3022 antibody (human)
Sequence of Human IgG1 CR3022 antibody (human) (heavy, as listed by the source, chain 1 of 2): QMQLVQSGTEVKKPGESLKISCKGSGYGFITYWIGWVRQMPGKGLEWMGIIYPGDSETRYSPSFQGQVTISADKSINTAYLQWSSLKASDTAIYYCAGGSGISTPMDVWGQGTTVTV
Sequence of Human IgG1 CR3022 antibody (human) (light, as listed by the source, chain 2 of 2): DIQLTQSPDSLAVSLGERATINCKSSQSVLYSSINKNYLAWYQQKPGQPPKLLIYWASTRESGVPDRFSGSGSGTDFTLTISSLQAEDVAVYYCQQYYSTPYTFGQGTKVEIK

Substance | Kd [1] | Kd [2] | Kd [3]
Plasmodium falciparum reticulocyte-binding protein homolog 5 (recombinant RH5) (from UniProt Q8IFM5 26-526) (ligand) | 0.665 µM | 0.925 µM | 
SARS-CoV-2 spike receptor binding domain (from UniProt P0DTC2 319-541) (domain or fragment) |  |  | 0.19 µM
